Test results: PMC2885190 (The Journal of Biological Chemistry, 2010)

Key:
[1] = target: T1, Recombinant gp120 from HIV-1 IIIB (HIV-1 IIIB, UniProt P04578); assay: cell-based or functional assay
[2] = target: T1, Recombinant gp120 from HIV-1 IIIB; assay: SPR

Binder | neutralisation of HIV-1 IIIB, TZM-bl luciferase assay, IC50 [1] | Kd [2] | koff [2] | kon [2]
A12 mutant 1 (Tyr101 to Ala101) (VHH) VHH: AVQLVESGGGLVQAGGSLRLSCTASGRISSSYDMGWFRQAPGKEREFVAAISWSGGTTDYADSVKGRFAISKDNAKNAVSLQMNSLKPEDTAVYYCAAKWRPLRYSDYPSNSDYADWGQGTQVTVSS | < 1 µg/mL | – | – | –
D7 VHH (VHH) VHH: AVQLVESGGGLAQAGGSLRLSCTVSGRTSSSHDMGWFRQAPGKEREFVAAISWSGGTTNYADSVKGRFAISKDNAKNAVSLQMNSLKPEDTAVYYCAAKWRPLRYSDNPSNSDYNYWGQGTQVTVSS | – | 2.9 nM | 0.000551 s⁻¹ | 155000 M⁻¹ s⁻¹
A12 VHH (VHH) VHH: AVQLVESGGGLVQAGGSLRLSCTASGRISSSYDMGWFRQAPGKEREFVAAISWSGGTTDYADSVKGRFAISKDNAKNAVSLQMNSLKPEDTAVYYCAAKWRPLRYSDYPSNSDYYDWGQGTQVTVSS | – | 0.1 nM | 2.98e-05 s⁻¹ | 273000 M⁻¹ s⁻¹
A12 mutant 2 (Tyr101 to Asn101) (VHH) VHH: AVQLVESGGGLVQAGGSLRLSCTASGRISSSYDMGWFRQAPGKEREFVAAISWSGGTTDYADSVKGRFAISKDNAKNAVSLQMNSLKPEDTAVYYCAAKWRPLRYSDYPSNSDYNDWGQGTQVTVSS | < 1 µg/mL | – | – | –
A12 mutant 3 (Tyr101 to Gln101) (VHH) VHH: AVQLVESGGGLVQAGGSLRLSCTASGRISSSYDMGWFRQAPGKEREFVAAISWSGGTTDYADSVKGRFAISKDNAKNAVSLQMNSLKPEDTAVYYCAAKWRPLRYSDYPSNSDYQDWGQGTQVTVSS | < 1 µg/mL | – | – | –
mutant 7 of A12/D7 (VHH) VHH: AVQLVESGGGLAQAGGSLRLSCTVSGRTSSSHDMGWFRQAPGKEREFVAAISWSGGTTNYADSVKGRFAISKDNAKNAVSLQMNSLKPEDTAVYYCAAKWRPLRYSDNPSNSDYNDWGQGTQVTVSS | < 1 µg/mL | – | – | –
